Substrate: CC(=O)C=O
Test: purified protein

B1: (Homo sapiens) (protein)
chain: MASKRALVILAKGAEEMETVIPVDVMRRAGIKVTVAGLAGKDPVQCSRDVVICPDASLEDAKKEGPYDVVVLPGGNLGAQNLSESAAVKEILKEQENRKGLIAAICAGPTALLAHEIGFGSKVTTHPLAKDKMMNGGHYTYSENRVEKDGLILTSRGPGTSFEFALAIVEALNGKEVAAQVKAPLVLKD
Q: What does the source list for B1?
A: Km: 340 ± 40 µM; kcat: 0.126 ± 0.004 s⁻¹

From article PMC9426524
